Laboratory results from the DeepSol protein solubility set.

Assay: soluble on expression in E. coli; label from the status in PepcDB or PDB records

| Sequence | soluble on expression in E. coli |
| --- | --- |
| MSVASLFEKFFLSASFIDKAPRTQKDYLGYKKDLLIAFGKMDINKVEPKHVRMFMDKKAVKSGISQANRHKSALQSIFSWAYERGKIKVNPCVGVKKFTEKLEHHHHHH | not soluble |
| MGSDKIHHHHHHMNYFATVARGLETLAAQELEQLGAHSVEPGFCGVAFEGDRTLLYRVNLWARLPFRILVDIHEFPCLDAKDLYRGIQTIDWQNYLTPDMTLAVNVTGKNAHLNHSHFTSLQVKNAIVDQQQEKLGERSNVELHEPDVRVNVHIERDFCTVKLDSSGNSLHRRGYRPAVGSAPLKESLAAALIQLSGWKQDQMFYDPLCGSGTLPLEASLKALNIAPGLFRESFGFENWLDFDLVLLEKLLQEAKDSQLDTLPAPIWGSDHDENVIEQAINNAQNCGVDNHVWFSQMELADVVAPADSGILLCNPPYGERLGRDSDLGAFYKLLGDVLKQRFKGWTAFVLSGNKELSQSIGLKSSKRIAVYNGALPCQLMKYELY | not soluble |
| MGSDKIHHHHHHMKIVFITTVASSIYGFRAPVIKKLIGKNHQVYAFVSEFSDNELDIIREMGVTPVTYRSNRSGVNPFSDIKSTFLIFKALKKISPDLVFPYFAKPVIFGTFAAKLAGVPRIVGMLEGLGFAFTPQPEGIPLKTKIIKGILIALYRIALPMLESLIVLNPDDKDELLHQYGIKIKNIHILGGIGLDLRQYPYSEADIPDEKEPVKFLFIGRFLKEKGIDDFIRAAEQVKGKYPDTVFTALGAIDKSRGGGGDLERFIARDIIRFPGFVNNVSEVIKAHHIFVLPSYYREGVPRSTQEAMAVGRAVITTDVPGCRETVADKVNGFLIEPWNPRILAEKMIYFIENRAAVRLMANASYAIAKDKFDAEKVDLKFLDILKA | not soluble |
| MSLTAPRTPGTPRTPRTEHLVLPGVLTAAEAAATVRGILAVQREDGAIPWFRGHHLDPWDHVEAAMALDTADEHEAAERAYAWLARHQNQDGSWYAAYADGDFADVTDRGRETNFVAYVAVGVWHHYLATGDDLFLERMWPVVHAAVEFVLRLQQPGGQIGWRRGDDGTDTTDALLTGSSSVHHALRCALAIAEQREEPQPDWELAAGALRHAIRRHPERFLDKGRYSMDWYYPVLGGALTGTEARSRIQESWDRFVVPGLGVRCVVPNPWVTGGESAELALALWAVGESDHALEILQSIQHLRDPDSGLYWTGYVFEDETVWPRELTAWTAGSLLLAVAALGGHEATCQVFAGERLPRGLDPDCCVEGHHHHHH | soluble |
| MVWDVETAKRFLEVIRNETIYYPVLIALHTGMRAGEIVSLKWYDVNFEARIISVVKSVRNNRGLKTSDVKTKTSKRSVYINDVLFSELKNLYETIKPKPDDFVCPRLPTGNLTVGYLSKRFKLLVKRYNFPVIRFHDLRHTFATLMLSLGVNTKIVAEILGHSDIKLTADTYSHVLPTMQESAMKEFSKLWKLEHHHHHH | soluble |
| SMRSGSSMKEEPLGSGMNAVRTWMQGAGVLDANTAAQSGVGLARAHFEKQPPSNLRKSNFFHFVLALYDRQGQPVEIERTAFVGFVEKEKEANSEKTNNGIHYRLQLLYSNGIRTEQDFYVRLIDSMTKQAIVYEGQDKNPEMCRVLLTHEIMCSRCCDKKSCGNRNETPSDPVIIDRFFLKFFLKCNQNCLKNAGNPRDMRRFQVVVSTTVNVDGHVLAVSDNMFVHNNSKHGRRARRLDPS | soluble |
| MSNQRSSLKHLNTFALPAYASNVISAGSVETLIAAWHESKAKRQPVLLLGEGSNVLFIKNFSGTVLLNRIMGITSTEDSAAWYLHVGAGENWHQLVCHSLQNNMPGLENLALIPGCVGSAPIQNIGAYGVELKQVCEYVDLLDMDKGTIQRISAEECQFGYRDSIFKHRYGNGFAIVSVGIKLMKSWTPTLGYGDLIHMDPLTVTATDIFNSVCTMRRSKLPDPMVTGNAGSFFKNPVVSAAIAEEIVHCYPNAPHYLQPDGSVKLAAGWLIDQCSLKGYQIGGAAVHQQQALVLINQSEATGQDVIHLARYIRQQVAQRFSIWLEPEVRFIADNGEVNAVEHLS | not soluble |
| GPGSMWFGTKNQRKAPQIPFPKRNKTKQRRASRRVRARVRTGNKPEHAIGGTGCASSRMRRGLDGSNTAAPGCDVSSHLSTPVHRPLRCAQPLFVFKSTSLRASLRNTCHHARHRARPYAHGSVSPPLSPSLAYFPQRSKGSRTPAYRWDCTVTRRSWSAHGSASTLVCARVRRSAPFTIGRANDRQRSAAEGDDARTPAHLTTLSTRSQQPKQAKQNTGSSMNSAGTGAPAKAAGVSASSLSMPKHKLVLLGDQSVGKTSIITRFMYDTFDQQYQPTIGIDFFSKTVHLDDDRDVRLHLWDTAGQERFHSLIPSYIRNSAATVVVYDITSRPTFFSAFKWIDEVRSESGADVVIMLVGNKVDQASERREVSAEEAMKKASECSVLFMEVSAKHGTNIKHMFRQVAAALPAPASTGGGAGVTGATSSSAGGVGAAGASGSGASAPGISAGQFGGIVRSPFLITPSAMQAASNGTGGAGEADGANPNAQGGRGGACC | not soluble |
| MSQSSDASEKEKPKEKKSQEELEKELDKELKKGGEPKTKKDDQIHKIGETFKAGHTNFTVNKVDRVQKGEYMNVGGAVNEETKTIKDDEERLIIEVTMENIGEDSISYNFIGFDLRDKNDQSVRPVFSIEEKGRILMGGTLVSGKKVTGVLSYVIPKGEQKHYTLVYNPFLADTNSSNTEERVKDDIDYLVKLDLEHHHHHH | soluble |
| DIELTQSPPSLPVSLGDQVSISCRSSQSLVSNNRRNYLHWYLQKPGQSPKLVIYKVSNRFSGVPDRFSGSGSGTDFTLKISRVAAEDLGLYFCSQSSHVPLTFGSGTKLEIKR | soluble |
| YHETVIYEAHVKGMTQTHPSIPPELRGTYAGLAHPVIIDHLNELNVTAVELMPVHQFLHDSRLLDLGLRNYWGYNTFGFFAPHHQYASTRQAGSAVAEFKTMVRSLHEAGIEVILDVVYNHTAEGNHLGPTINFRGIDNTAYYRLMDHDLRFYKDFTGTGNSLNARHPHTLQLIMDSLRYWVIEMHVDGFRFDLASTLARELHDVDRLSAFFDLVQQDPVVSQVKLIAEPWDVGEGGYQVGNFPGLWTEWNGKYRDTVRDYWRGEPATLGEFASRLTGSSDLYEATGRRPSASINFVTAHDGFTLNDLVSYNDKHNEANGENNRDGESYNRSWNCGVEGPTDDPDILALRARQMRNMWATLMVSQGTPMIAHGDEIGRTQYGNNNVYCQDSELSWMDWSLVDKNADLLAFARKATTLRKNHKVFRRRRFFEGEPIRSGDEVRDIAWLTPSGREMTHEDWGRGFDRCVAVFLNGEAITAPDARGERVVDDSFLLCFNAHDHDVEFVMPHDGYAQQWTGELDTNDPVGDIDLTVTATDTFSVPARSLLVLRKTL | soluble |
| MSLTEIRLVDVTMRDGNQSLWGATGLNTAHMLQAAALTEACGFRAIDFTSSSHMAVAVRYFQNNPWERLRRMAAAMPTTPLQFITTGLRFIAWQQADPEFMRLVYRALQANGVGRFVLLDPMHEVPAVIEAAKLVKEEGNAEVMAALTFTLSEIHTDQFYADFARAVGQSPNIDLFYIKDPAGLLSVDRARTLVPAVKAVIGNRPLEIHAHTTVGQGMMASLEAAKLGISAIHVGVGPGGDGSSLPEANRMVANLEEAGFSVGVDKAALKRLTTYWERVALAEGLPPGTPQNFDASFLRHQIAGGVMTTIARQLDELGLSDRMGAVIEETGQVRADLGFPIMVTPFPQMVMTQALFNVIGERRYAQVSDQVIRYCMGKFGKPTSPVDREVLATIMDRPRSRELEDEPMFPALGDLRRQFGSHLPDEEFLLRAVMPGEQVDAMLAAGPSRATYSPQAAPILSLLRQLAARPDARDIVIEREGFRLALHAGASLEGHHHHHH | not soluble |
| MMIMNNFDEKKLIQEFSKIQSELSPRIKLENNFQIEEIQFIAGVDLAYWNVNKTKYGTCCIVIIDYGTKEVVEKVYSYGEIPIPYIPGFLAFRELPLIIEAVKKLTKQPDIYFFDGNGYLHYRHMGIATHASFLLNKPTIGVAKSYLKIRDVDFIMPENLKGSYTDIVINNEVYGRTLRTTKNVKPIFVSCGNWIDLDTSTEIVMNCINNESRLPIPVRLADLETHKMRKKLMEGLEHHHHHH | not soluble |
| MAHHHHHHPPKRAALIQNLRDSYTETSSFAVIEEWAAGTLQEIEGIAKAAVEAHATIRNSTYGRAQAEKSPEQLLGVLQRYQDLCHNVYCQAETIRTVIAIRIPEHKEADNLGVAVQHAVLKVIDELEIKTLGSGEKSGSGGAPTPIGMYALREYLSARSTVEDKLLGSVDAESGKTKGGSQSPSLLLELRQIDADFMLKVELATTHLSTMVRAVINAYLLNWKKLIQPRGGHLDVLYR | soluble |
